# ± gives the standard error. Variants at the floor of the assay were thinned out.
# B1: glmS ribozyme (parent)
# chain: AUAAAAGCGCCAGAACUACAGAAAUGUAGUUGACGAGGAGGAGGUUUAUCGAAUUUUCGGCGGAUGCCUCCAAA
# Key:
# Conditions in all cases: with glucosamine-6-phosphate
# glucosamine-6-phosphate [1] = variants of: B1; assay: self-cleavage kobs at 40 uM GlcN6P; higher = faster cleavage; RNA array
# How it was run: (§1)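 Over ~14 h at 37 °C, tiles were imaged as glucosamine-6-phosphate (40 μM to 10 mM) in HEPES/KCl/Mg(OAc)2 buffer flowed across sequenced MiSeq chips. The chips carried barcoded ribozyme variants transcribed in situ by E. coli RNA polymerase and tracked with a hybridised Cy3 probe. After normalisation to baseline and to non-cleaving reference variants, one- or two-exponential decay fits of per-tile medians gave kobs. kcat and KM followed from weighted Michaelis–Menten fits across concentrations.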
# glucosamine-6-phosphate [2] = variants of: B1; assay: self-cleavage kobs at 160 uM GlcN6P; higher = faster cleavage; RNA array
# How it was run: as §1
# glucosamine-6-phosphate [3] = variants of: B1; assay: self-cleavage kobs at 10000 uM GlcN6P; higher = faster cleavage; RNA array
# How it was run: as §1
# glucosamine-6-phosphate [4] = variants of: B1; assay: self-cleavage kobs at 640 uM GlcN6P; higher = faster cleavage; RNA array
# How it was run: as §1
# glucosamine-6-phosphate [5] = variants of: B1; assay: self-cleavage kobs at 2500 uM GlcN6P; higher = faster cleavage; RNA array
# How it was run: as §1
Variant,self-cleavage kobs at 40 uM GlcN6P (glucosamine-6-phosphate [1]),self-cleavage kobs at 160 uM GlcN6P (glucosamine-6-phosphate [2]),self-cleavage kobs at 10000 uM GlcN6P (glucosamine-6-phosphate [3]),self-cleavage kobs at 640 uM GlcN6P (glucosamine-6-phosphate [4]),self-cleavage kobs at 2500 uM GlcN6P (glucosamine-6-phosphate [5])
G37C G59A,< 1e-05 s⁻¹,< 1e-05 s⁻¹,< 1e-05 s⁻¹,–,–
A39U G44A C71A,< 1e-05 s⁻¹,< 1e-05 s⁻¹,–,–,–
G40U G44C,< 1e-05 s⁻¹,< 1e-05 s⁻¹,–,< 1e-05 s⁻¹,–
G38A U47C,< 1e-05 s⁻¹,< 1e-05 s⁻¹,–,–,< 1e-05 s⁻¹
G40U C61U,< 1e-05 s⁻¹,< 1e-05 s⁻¹,–,–,–
G40U A53U C58A G62U,< 1e-05 s⁻¹,–,–,–,–
A36U C70G,3.74e-05 ± 8.5e-06 s⁻¹,2.91e-05 ± 1.4e-05 s⁻¹,–,0.000403 ± 6.8e-05 s⁻¹,–
A36C U49A G62C C70U,< 1e-05 s⁻¹,–,< 1e-05 s⁻¹,–,–
A39C A48C U55C C58U,< 1e-05 s⁻¹,–,–,< 1e-05 s⁻¹,< 1e-05 s⁻¹
G40C U54G,0.000126 ± 1.3e-05 s⁻¹,0.000127 ± 3e-05 s⁻¹,0.00251 ± 0.00031 s⁻¹,0.000766 ± 0.00015 s⁻¹,0.0025 ± 0.00059 s⁻¹
G40C U54C,8.26e-05 ± 2.6e-05 s⁻¹,–,0.00203 ± 0.00044 s⁻¹,–,0.00131 ± 0.00028 s⁻¹
G38U A48G G51U,< 1e-05 s⁻¹,–,< 1e-05 s⁻¹,–,–
A36G C61A,< 1e-05 s⁻¹,–,< 1e-05 s⁻¹,< 1e-05 s⁻¹,–
A39C G62U,< 1e-05 s⁻¹,–,< 1e-05 s⁻¹,–,< 1e-05 s⁻¹
A39U C61A U65C,< 1e-05 s⁻¹,–,–,–,–
G38A G43U C67U,< 1e-05 s⁻¹,–,< 1e-05 s⁻¹,–,–
G38C U56A,< 1e-05 s⁻¹,–,–,–,< 1e-05 s⁻¹
A39C A52U C71U,< 1e-05 s⁻¹,–,–,–,–
G37C U65G U69G,< 1e-05 s⁻¹,–,< 1e-05 s⁻¹,–,–
G37A G38U C50G C67U,8.1e-05 ± 3.5e-05 s⁻¹,–,0.000315 ± 8.1e-05 s⁻¹,–,–
A36U U54C,< 1e-05 s⁻¹,< 1e-05 s⁻¹,–,< 1e-05 s⁻¹,–
G38C A39U G60U,< 1e-05 s⁻¹,–,< 1e-05 s⁻¹,–,< 1e-05 s⁻¹
G37C G59C A64G C68A,< 1e-05 s⁻¹,< 1e-05 s⁻¹,–,–,–
G38U A52C,< 1e-05 s⁻¹,–,< 1e-05 s⁻¹,< 1e-05 s⁻¹,–
G38A G60U U69G,< 1e-05 s⁻¹,–,< 1e-05 s⁻¹,–,–

Variant,self-cleavage kobs at 40 uM GlcN6P (glucosamine-6-phosphate [1]),self-cleavage kobs at 160 uM GlcN6P (glucosamine-6-phosphate [2]),self-cleavage kobs at 10000 uM GlcN6P (glucosamine-6-phosphate [3]),self-cleavage kobs at 640 uM GlcN6P (glucosamine-6-phosphate [4]),self-cleavage kobs at 2500 uM GlcN6P (glucosamine-6-phosphate [5])
G38U C61U U69C C71G,6.15e-05 ± 2.4e-05 s⁻¹,–,4.2e-05 ± 1.5e-05 s⁻¹,–,–
G37A C50G C70G,4.31e-05 ± 2.1e-05 s⁻¹,–,–,–,–
G40A U46G,4.29e-05 ± 1.2e-05 s⁻¹,–,0.00152 ± 0.00029 s⁻¹,–,0.000841 ± 0.00023 s⁻¹
A36G A53G,< 1e-05 s⁻¹,< 1e-05 s⁻¹,–,< 1e-05 s⁻¹,–
G37U A52U,< 1e-05 s⁻¹,–,–,< 1e-05 s⁻¹,< 1e-05 s⁻¹
A36C U47C,< 1e-05 s⁻¹,–,–,< 1e-05 s⁻¹,< 1e-05 s⁻¹
G38U C58U,< 1e-05 s⁻¹,–,< 1e-05 s⁻¹,–,< 1e-05 s⁻¹
A39G C68G,2.98e-05 ± 1.4e-05 s⁻¹,6.43e-05 ± 1.3e-05 s⁻¹,0.000116 ± 1.2e-05 s⁻¹,0.000165 ± 5e-05 s⁻¹,0.000286 ± 4.7e-05 s⁻¹
A39C G44A G60U C68U,< 1e-05 s⁻¹,–,–,–,–
G37C U54C C61U C67G,< 1e-05 s⁻¹,–,< 1e-05 s⁻¹,–,–
A39G U47C,0.000381 ± 6e-05 s⁻¹,–,0.0217 ± 0.0054 s⁻¹,0.00353 ± 0.0012 s⁻¹,0.00728 ± 0.0026 s⁻¹
A39G U47G,0.000644 ± 0.0001 s⁻¹,–,0.0237 ± 0.0069 s⁻¹,0.00207 ± 0.00049 s⁻¹,0.0155 ± 0.0035 s⁻¹
G38U U47G C70G,0.000113 ± 3.3e-05 s⁻¹,–,9.01e-05 ± 2.3e-05 s⁻¹,–,–
G37C A42C C71G,< 1e-05 s⁻¹,< 1e-05 s⁻¹,< 1e-05 s⁻¹,< 1e-05 s⁻¹,< 1e-05 s⁻¹
G38A A42U C70A,< 1e-05 s⁻¹,–,< 1e-05 s⁻¹,–,< 1e-05 s⁻¹
A36U U65G,< 1e-05 s⁻¹,< 1e-05 s⁻¹,< 1e-05 s⁻¹,–,–
G37U G40A G41U A52G,< 1e-05 s⁻¹,–,–,–,–
A36C U45G U65C,< 1e-05 s⁻¹,–,–,–,< 1e-05 s⁻¹
G38U A52G U69G,0.000147 ± 5.7e-05 s⁻¹,–,7.13e-05 ± 1.9e-05 s⁻¹,–,–
G40A C50G G66C,0.00112 ± 0.00049 s⁻¹,–,0.00127 ± 0.00049 s⁻¹,–,–
A39C A42U C67G,< 1e-05 s⁻¹,–,–,–,< 1e-05 s⁻¹
A39G G40A,0.000261 ± 8e-05 s⁻¹,–,–,0.00167 ± 0.00076 s⁻¹,0.00889 ± 0.0023 s⁻¹
A36G G60A,< 1e-05 s⁻¹,< 1e-05 s⁻¹,–,< 1e-05 s⁻¹,–
G37C A64C C68U,< 1e-05 s⁻¹,–,< 1e-05 s⁻¹,–,< 1e-05 s⁻¹
A36G U56G,< 1e-05 s⁻¹,–,–,< 1e-05 s⁻¹,–

Variant,self-cleavage kobs at 40 uM GlcN6P (glucosamine-6-phosphate [1]),self-cleavage kobs at 160 uM GlcN6P (glucosamine-6-phosphate [2]),self-cleavage kobs at 10000 uM GlcN6P (glucosamine-6-phosphate [3]),self-cleavage kobs at 640 uM GlcN6P (glucosamine-6-phosphate [4]),self-cleavage kobs at 2500 uM GlcN6P (glucosamine-6-phosphate [5])
A39U A42G U56G A64C,< 1e-05 s⁻¹,–,4.69e-05 ± 1.8e-05 s⁻¹,–,–
A36U C67U C70G,7.02e-05 ± 2.8e-05 s⁻¹,–,3.53e-05 ± 1.7e-05 s⁻¹,–,–
G38C A42G,< 1e-05 s⁻¹,< 1e-05 s⁻¹,< 1e-05 s⁻¹,< 1e-05 s⁻¹,< 1e-05 s⁻¹
G38A C67U C71A,< 1e-05 s⁻¹,–,< 1e-05 s⁻¹,–,–
G40C C61G,< 1e-05 s⁻¹,< 1e-05 s⁻¹,< 1e-05 s⁻¹,< 1e-05 s⁻¹,< 1e-05 s⁻¹
G40U G60C,< 1e-05 s⁻¹,< 1e-05 s⁻¹,< 1e-05 s⁻¹,–,< 1e-05 s⁻¹
G37U A48U,< 1e-05 s⁻¹,< 1e-05 s⁻¹,< 1e-05 s⁻¹,–,< 1e-05 s⁻¹
A36C G62C,< 1e-05 s⁻¹,< 1e-05 s⁻¹,< 1e-05 s⁻¹,–,–
A36C U54C A64U C67G,< 1e-05 s⁻¹,–,–,–,–
G37A C61A,< 1e-05 s⁻¹,–,< 1e-05 s⁻¹,< 1e-05 s⁻¹,–
G40A A48C U57A C61G,< 1e-05 s⁻¹,–,–,–,< 1e-05 s⁻¹
G38U G63U,< 1e-05 s⁻¹,–,< 1e-05 s⁻¹,–,< 1e-05 s⁻¹
A39C U55G,0.000197 ± 7e-05 s⁻¹,0.000315 ± 8.7e-05 s⁻¹,–,0.00104 ± 0.00022 s⁻¹,–
G37U G60A,< 1e-05 s⁻¹,–,–,< 1e-05 s⁻¹,–
G41A U49C,< 1e-05 s⁻¹,< 1e-05 s⁻¹,–,< 1e-05 s⁻¹,< 1e-05 s⁻¹
G40C G44C,< 1e-05 s⁻¹,–,< 1e-05 s⁻¹,–,–
G38U U49A C58A,< 1e-05 s⁻¹,–,–,–,–
A39C G40C U47C,< 1e-05 s⁻¹,–,–,–,–
A39G U45C C67U,0.000136 ± 5.9e-05 s⁻¹,–,0.00434 ± 0.0011 s⁻¹,–,–
G40C U49A,< 1e-05 s⁻¹,–,< 1e-05 s⁻¹,< 1e-05 s⁻¹,–
G40C U49C,< 1e-05 s⁻¹,–,< 1e-05 s⁻¹,< 1e-05 s⁻¹,< 1e-05 s⁻¹
G38C U47A C70U,< 1e-05 s⁻¹,–,–,–,–
G37U G41A C68U,< 1e-05 s⁻¹,–,–,–,–
G40C U57A,< 1e-05 s⁻¹,< 1e-05 s⁻¹,–,–,–
A39G U45C U57C C70U C71U,< 1e-05 s⁻¹,–,–,–,–

Variant,self-cleavage kobs at 40 uM GlcN6P (glucosamine-6-phosphate [1]),self-cleavage kobs at 160 uM GlcN6P (glucosamine-6-phosphate [2]),self-cleavage kobs at 10000 uM GlcN6P (glucosamine-6-phosphate [3]),self-cleavage kobs at 640 uM GlcN6P (glucosamine-6-phosphate [4]),self-cleavage kobs at 2500 uM GlcN6P (glucosamine-6-phosphate [5])
G38C A39C G43U U57G C71U,< 1e-05 s⁻¹,–,< 1e-05 s⁻¹,< 1e-05 s⁻¹,< 1e-05 s⁻¹
G37A A39U A42G C50U,< 1e-05 s⁻¹,–,< 1e-05 s⁻¹,< 1e-05 s⁻¹,–
G37A C50G C58A C67A C71U,4.39e-05 ± 1.4e-05 s⁻¹,–,–,–,6.21e-05 ± 1.7e-05 s⁻¹
G38U G44A,< 1e-05 s⁻¹,< 1e-05 s⁻¹,< 1e-05 s⁻¹,< 1e-05 s⁻¹,< 1e-05 s⁻¹
G37C U55C,< 1e-05 s⁻¹,–,5.46e-05 ± 9.7e-06 s⁻¹,–,–
G40A G60A,< 1e-05 s⁻¹,< 1e-05 s⁻¹,–,< 1e-05 s⁻¹,–
G37A U57G,< 1e-05 s⁻¹,–,–,–,–
G40A A48U C61G,< 1e-05 s⁻¹,–,< 1e-05 s⁻¹,–,–
A39G A53C,0.000254 ± 5.4e-05 s⁻¹,0.000658 ± 0.00016 s⁻¹,0.0216 ± 0.0083 s⁻¹,0.00303 ± 0.00075 s⁻¹,0.0068 ± 0.0017 s⁻¹
G37U G40A,< 1e-05 s⁻¹,< 1e-05 s⁻¹,< 1e-05 s⁻¹,< 1e-05 s⁻¹,< 1e-05 s⁻¹
G37C A64U,< 1e-05 s⁻¹,< 1e-05 s⁻¹,< 1e-05 s⁻¹,< 1e-05 s⁻¹,< 1e-05 s⁻¹
G38C G63U,< 1e-05 s⁻¹,–,–,–,–
G37A A42C U47G,< 1e-05 s⁻¹,< 1e-05 s⁻¹,–,< 1e-05 s⁻¹,–
G38A G51U A52U,< 1e-05 s⁻¹,–,< 1e-05 s⁻¹,–,–
G40U U54G,0.000133 ± 1.9e-05 s⁻¹,–,0.00364 ± 0.00066 s⁻¹,0.00124 ± 0.00029 s⁻¹,0.00192 ± 0.00049 s⁻¹
G40U U54A,7.88e-05 ± 1.1e-05 s⁻¹,0.000207 ± 2.7e-05 s⁻¹,0.0025 ± 0.00054 s⁻¹,0.000391 ± 5.1e-05 s⁻¹,0.00192 ± 0.00039 s⁻¹
G37C U46A,< 1e-05 s⁻¹,< 1e-05 s⁻¹,< 1e-05 s⁻¹,< 1e-05 s⁻¹,–
G40A U45G,5.96e-05 ± 1.5e-05 s⁻¹,–,0.000145 ± 3.5e-05 s⁻¹,0.000563 ± 0.00021 s⁻¹,0.000133 ± 4.2e-05 s⁻¹
G41A G60U,< 1e-05 s⁻¹,–,< 1e-05 s⁻¹,< 1e-05 s⁻¹,–
A36U U45A C71G,< 1e-05 s⁻¹,–,–,–,–
A39C G63U,< 1e-05 s⁻¹,–,< 1e-05 s⁻¹,< 1e-05 s⁻¹,–
G41A G43C G62U,< 1e-05 s⁻¹,–,< 1e-05 s⁻¹,–,–

# Source: the supplement of paper PMC7125110
